Biological target: platelet membrane actin (human (endogenous in platelets)) (UniProt P60709)
Assay: SEC

glycoprotein IIb, form in the Triton X-100-insoluble fraction of platelet plasma membranes (natural protein)
percent of surface GPIIb and III associated with the actin-rich void volume peak: > 85%

Reference: paper PMC2113458
